Source: article PMC4141210 (FEBS Open Bio, 2014)

B1: His–M1 (influenza virus M1 protein, wild type) (natural protein)
chain: MSLLTEVETYVLSIIPSGPLKAEIAQRLEDVFAGKNTDLEVLMEWLKTRPILSPLTKGILGFVFTLTVPSERGLQRRRFVQNALNGNGDPNNMDKAVKLYRKLKREITFHGAKEISLSYSAGALASCMGLIYNRMGAVTTEVAFGLVCATCEQIADSQHRSHRQMVTTTNPLIRHENRMVLASTTAKAMEQMAGSSEQAAEAMEVASQARQMVQAMRTIGTHPSSSAGLKNDLLENLQAYQKRMGVQMQRFK

How the values were obtained:
[1] = biological target: B1; assay: far-Western, overlay or dot blot
[2] = biological target: B1; assay: pull-down
[3] = biological target: GST–Hsc70 wild-type (1–646 aa) (UniProt P11142 1-646); assay: pull-down
Chain of GST–Hsc70 wild-type (1–646 aa) (P11142 whole entry, the tested form may be a part): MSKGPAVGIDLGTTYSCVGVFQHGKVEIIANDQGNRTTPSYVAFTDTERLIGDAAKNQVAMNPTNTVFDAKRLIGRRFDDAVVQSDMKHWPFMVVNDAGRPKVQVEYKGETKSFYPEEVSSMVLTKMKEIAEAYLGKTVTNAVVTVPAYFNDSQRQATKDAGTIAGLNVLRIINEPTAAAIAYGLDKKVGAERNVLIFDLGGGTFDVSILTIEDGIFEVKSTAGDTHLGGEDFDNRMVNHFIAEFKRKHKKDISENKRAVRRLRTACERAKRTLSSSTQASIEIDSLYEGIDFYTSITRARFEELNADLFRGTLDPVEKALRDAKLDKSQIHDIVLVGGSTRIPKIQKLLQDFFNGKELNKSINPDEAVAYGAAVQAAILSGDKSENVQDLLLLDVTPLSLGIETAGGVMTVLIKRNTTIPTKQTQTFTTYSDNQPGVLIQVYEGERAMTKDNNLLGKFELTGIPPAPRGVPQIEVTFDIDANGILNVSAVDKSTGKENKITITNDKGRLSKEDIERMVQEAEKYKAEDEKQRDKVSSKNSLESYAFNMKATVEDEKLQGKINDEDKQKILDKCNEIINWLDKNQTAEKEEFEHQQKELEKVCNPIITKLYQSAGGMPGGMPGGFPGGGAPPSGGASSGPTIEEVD

Binder	relative band intensity [1]	also measured
GST–Hsc70 N402 (1–402 aa) (domain or fragment) not shown	0.71 relative (wild type = 1)	–
GST–Hsc70 N384 (1–384 aa) (domain or fragment) not shown	0.26 relative (wild type = 1)	–
GST–NS2 (natural protein) MDPNTVSSFQDILLRMSKMQLESSSGDLNGMITQFESLKLYRDSLGEAVMRMGDLHSLQNRNEKWREQLGQKFEEIRWLIEEVRHKLKITENSFEQITFMQALHLLLEVEQEIRTFSFQLI	–	Kd [2]: 6 µM
B1	–	Kd [3]: 100 nM
